Experimental findings from PMC5736716, “A hydrophobic anchor mechanism defines a deacetylase family that suppresses host response against YopJ effectors” (Nature Communications, 2017) are described below.

One data set addresses HA:AvrBsT (Xanthomonas euvesicatoria, UniProt A0ABS8LK00). The class given is biochemical.
The next data set addresses T1, AtTIPSY1 (Arabidopsis thaliana, UniProt Q8GYK2).
T1 sequence (Q8GYK2 1-262): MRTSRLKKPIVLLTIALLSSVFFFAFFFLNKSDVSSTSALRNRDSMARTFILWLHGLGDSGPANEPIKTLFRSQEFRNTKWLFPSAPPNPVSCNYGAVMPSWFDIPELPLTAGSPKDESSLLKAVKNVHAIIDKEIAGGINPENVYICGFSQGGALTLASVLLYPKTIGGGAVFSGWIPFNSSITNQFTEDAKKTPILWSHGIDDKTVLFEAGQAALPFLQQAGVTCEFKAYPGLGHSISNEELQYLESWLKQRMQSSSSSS
The data set can be described thus: colorimetric p-nitrophenol release at […] nm. Format: biochemical. Particulars: 20 mM HEPES, 150 mM NaCl, pH 7.52-7.55, 0.01% Triton X-100, room temperature.

Data set [1] deals with CC(=O)Oc1ccc([N+](=O)[O-])cc1. The data set can be described thus: purified protein. To be noted: 20 mM HEPES, 150 mM NaCl, pH 7.52-7.55, 0.01% Triton X-100, room temperature; pH 7.0.
For data set [2], the system named is CCCC(=O)Oc1ccc([N+](=O)[O-])cc1. Put plainly: purified protein. Particulars: 20 mM HEPES, 150 mM NaCl, pH 7.52-7.55, 0.01% Triton X-100, room temperature; pH 7.0.
In data set [3] the test system is CCCCC(=O)Oc1ccc([N+](=O)[O-])cc1. The data set can be described thus: purified protein. Particulars: 20 mM HEPES, 150 mM NaCl, pH 7.52-7.55, 0.01% Triton X-100, room temperature; pH 7.0.
Substrate in data set [4]: CC(=O)Oc1ccc([N+](=O)[O-])cc1
Put plainly: purified protein. To be noted: 20 mM HEPES, 150 mM NaCl, pH 7.52-7.55, 0.01% Triton X-100, room temperature; pH 7.0. The source holds these as a separate data set.

Substrate in data set [5]: CCCC(=O)Oc1ccc([N+](=O)[O-])cc1
Put plainly: purified protein. Particulars: 20 mM HEPES, 150 mM NaCl, pH 7.52-7.55, 0.01% Triton X-100, room temperature; pH 7.0. This is another data set of the same source.

Substrate in data set [6]: CCCCC(=O)Oc1ccc([N+](=O)[O-])cc1
The data set can be described thus: purified protein. Particulars: 20 mM HEPES, 150 mM NaCl, pH 7.52-7.55, 0.01% Triton X-100, room temperature; pH 7.0. The source holds these as a separate data set.

The Km is the concentration of substrate that gives half-maximal velocity.

Consider `CC(=O)SCCNC(=O)CCNC(=O)[C@H](O)C(C)(C)COP(=O)(O)OP(=O)(O)OC[C@H]1O[C@@H](n2cnc3c(N)ncnc32)[C@H](O)[C@@H]1OP(=O)(O)O` [[Acetyl-1-^14C]-Acetyl Coenzyme A], for which the “autoradiography of auto-acetylation on anti-HA beads” value on HA:AvrBsT is “led to auto-acetylation of the wild type protein, but not the enzymatically inactive mutant”.

Regarding `CCCCCC(=O)Oc1ccc([N+](=O)[O-])cc1` [pNP hexanoate], the Michaelis-Menten parameters result at AtTIPSY1 is recorded as “allowed the protein to hydrolyze para-nitrophenyl hexanoate, like AtTIPSY1 is able to”.

With AtSOBER1 (Arabidopsis thaliana; F65L), in data set [1], the Km was 3.12 ± 0.44 × 10^-4 M and the kcat is on record as 1.88 ± 0.23 × 10^2 s-1. Further, in data set [2], the Km is 4.80 ± 0.23 × 10^-5 M and the kcat is 1.10 ± 0.18 × 10^1 s-1.

Take AtSOBER1 (Arabidopsis thaliana; L63A): the Km in data set [1] turned out to be 6 mM; in data set [3], 4 µM; in data set [2], 30 µM.

In the case of AtTIPSY1 (Arabidopsis thaliana; L110F), in data set [1], the Km is 1.75 ± 0.33 × 10^-3 M and the kcat was 4.82 ± 0.32 × 10^2 s-1.

B1: AtSOBER1 (Arabidopsis thaliana) (protein)
chain: MARTFILWLHGLGDSGPANEPIQTQFKSSELSNASWLFPSAPFNPVTCNNGAVMRSWFDVPELPFKVGSPIDESSVLEAVKNVHAIIDQEIAEGTNPENVFICGLSQGGALTLASVLLYPKTLGGGAVLSGWVPFTSSIISQFPEEAKKTPILWSHGTDDRMVLFEAGQAALPFLKEAGVTCEFKAYPGLGHSISNKELKYIESWIKRRLKGSSSTCLQLNCLKEMFH
In the case of B1, the Km in “purified protein [4]” is given as 158 µM; in the data set “purified protein [5]”, 227 µM; in the data set “purified protein [6]” it was 327 µM.

B2: AtTIPSY1 (Arabidopsis thaliana) (protein)
chain: MRTSRLKKPIVLLTIALLSSVFFFAFFFLNKSDVSSTSALRNRDSMARTFILWLHGLGDSGPANEPIKTLFRSQEFRNTKWLFPSAPPNPVSCNYGAVMPSWFDIPELPLTAGSPKDESSLLKAVKNVHAIIDKEIAGGINPENVYICGFSQGGALTLASVLLYPKTIGGGAVFSGWIPFNSSITNQFTEDAKKTPILWSHGIDDKTVLFEAGQAALPFLQQAGVTCEFKAYPGLGHSISNEELQYLESWLKQRMQSSSSSS
For B2, the Km is 1.75 ± 0.18 × 10^-3 M in “purified protein [4]”, 5.03 ± 0.41 × 10^-4 M in “purified protein [5]” and 3.07 ± 0.29 × 10^-4 M in “purified protein [6]”. The kcat in “purified protein [6]” is listed as 6.46 ± 0.39 × 10^1 s-1.
